Target: CaV1.2 (α1C) L-type calcium channel subunit
Assay: cell-based or functional assay

**Q.** For calcium channel β3 subunit, which Ca^2+ influx (fluorescence change after depolarization with 50 mM KCl) in transfected HEK 293 cells is on record?
**A.** 3 fold

— patent publication US20030170785A1
